Measured values: IntAct's records for PubMed 14597414

B1: Prelamin-A/C (Homo sapiens), P02545 (parent)
chain: METPSQRRATRSGAQASSTPLSPTRITRLQEKEDLQELNDRLAVYIDRVRSLETENAGLRLRITESEEVVSREVSGIKAAYEAELGDARKTLDSVAKERARLQLELSKVREEFKELKARNTKKEGDLIAAQARLKDLEALLNSKEAALSTALSEKRTLEGELHDLRGQVAKLEAALGEAKKQLQDEMLRRVDAENRLQTMKEELDFQKNIYSEELRETKRRHETRLVEIDNGKQREFESRLADALQELRAQHEDQVEQYKKELEKTYSAKLDNARQSAERNSNLVGAAHEELQQSRIRIDSLSAQLSQLQKQLAAKEAKLRDLEDSLARERDTSRRLLAEKEREMAEMRARMQQQLDEYQELLDIKLALDMEIHAYRKLLEGEEERLRLSPSPTSQRSRGRASSHSSQTQGGGSVTKKRKLESTESRSSFSQHARTSGRVAVEEVDEEGKFVRLRNKSNEDQSMGNWQIKRQNGDDPLLTYRFPPKFTLKAGQVVTIWAAGAGATHSPPTDLVWKAQNTWGCGNSLRTALINSTGEEVAMRKLVRSVTVVEDDEDEDGDDLLHHHHGSHCSSSGDPAEYNLRSRTVLCGTCGQPADKASASGSGAQVGGPISSGSSASSVTVTRSYRSVGGSGGGSFGDNLVTRSYLLGNSSPRTQSPQNCSIM
partner: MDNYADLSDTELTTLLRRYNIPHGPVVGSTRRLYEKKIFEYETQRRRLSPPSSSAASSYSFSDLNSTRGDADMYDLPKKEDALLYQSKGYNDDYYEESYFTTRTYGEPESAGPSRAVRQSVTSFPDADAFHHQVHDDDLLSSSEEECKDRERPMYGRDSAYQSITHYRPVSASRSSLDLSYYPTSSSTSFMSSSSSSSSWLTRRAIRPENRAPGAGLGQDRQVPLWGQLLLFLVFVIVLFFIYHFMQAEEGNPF

Variants of: B1
Settings: with emd_human EMD

Variant | effect of a mutation on the interaction
R482L | decreasing interaction strength
